Among the data in article PMC10400905 are Kd, dH and stoichiometry N values, retold here.

The assay has as its target C4BPα1–2 (His6-tagged fragment of human C4b-binding protein) (human). The assay can be described thus: ITC; 23 °C, PBS; 300 to 500 μM intact M2 or M2G in the syringe, 30 to 50 μM C4BPα1–2 in the cell; single-site model.

On to “M2G (M2_(53)G; M2 aa 53–86 fused to GCN4)”, for which the Kd was found to be 4 µM, the dH was -27 kcal/mol and the stoichiometry N was 0.51.
Take “intact M2 protein (Streptococcus pyogenes, strain AP2) (natural protein)”: the Kd turned out to be 4 µM, the dH is -24 kcal/mol and the stoichiometry N came out at 0.5.

In general, Kd refers to the equilibrium constant for the complex coming apart. Low values mean a tighter complex, high ones a looser complex. In general, stoichiometry N refers to the number of molecules, sites or subunits per partner or assembly.
